Experimental data as given in patent publication US20230391826A1 (SANFORD BURNHAM PREBYS MEDICAL DISCOVERY INSTITUTE, published 2023).
Where no end group is shown, it is not given here. [ ]: non-standard residue; d: D form. The star is where a group is joined. Biotin = O=C1N[C@H]2[C@H](CS[C@H]2CCCCC(=O)*)N1; βAla = NCCC(=O)O; Cam = NC(=O)C*

B1: CGA-WLA-YR dimer (N-ter) (peptide)
peptide: CGAWLAYPDSVPYR
modifications: also: homodimer: N-terminal Cys of two chains joined by disulfide
notes: N-terminally disulfide-linked homodimer made from monomer (15*); also called dimer (4)
B2: βA-WLA-YRPKC dimer (C-ter) (peptide)
peptide: [βAla]WLAYPDSVPYRPKC
modifications: also: homodimer, disulfide at 15, other end not in the chain
notes: C-terminally disulfide-linked homodimer made from monomer (19*); also called dimer (2); dimeric peptide (2)
B3: βA-WLA-YGSGC dimer (C-ter) (peptide)
peptide: [βAla]WLAYPDSVPYGSGC
modifications: also: homodimer, disulfide at 15, other end not in the chain
notes: C-terminally disulfide-linked homodimer made from monomer (9*); also called dimer (1); dimeric peptide (1)
B4: CcamGA-WLA-YRPK-bio (peptide)
peptide: C(Cam)GAWLAYPDSVPYRPK(Biotin)
notes: also called monomer (10); monomeric peptide (10)
B5: linear dimer (head-to-tail) (peptide)
peptide: [βAla]WLAYPDSVPYRPKGGAWLAYPDSVPYRPK-NH2
modifications: N-terminus assumed
SMILES: CC(C)C[C@H](NC(=O)[C@H](Cc1c[nH]c2ccccc12)NC(=O)CCN)C(=O)N[C@@H](C)C(=O)N[C@@H](Cc1ccc(O)cc1)C(=O)N1CCC[C@H]1C(=O)N[C@@H](CC(=O)O)C(=O)N[C@@H](CO)C(=O)N[C@H](C(=O)N1CCC[C@H]1C(=O)N[C@@H](Cc1ccc(O)cc1)C(=O)N[C@@H](CCCNC(=N)N)C(=O)N1CCC[C@H]1C(=O)N[C@@H](CCCCN)C(=O)NCC(=O)NCC(=O)N[C@@H](C)C(=O)N[C@@H](Cc1c[nH]c2ccccc12)C(=O)N[C@@H](CC(C)C)C(=O)N[C@@H](C)C(=O)N[C@@H](Cc1ccc(O)cc1)C(=O)N1CCC[C@H]1C(=O)N[C@@H](CC(=O)O)C(=O)N[C@@H](CO)C(=O)N[C@H](C(=O)N1CCC[C@H]1C(=O)N[C@@H](Cc1ccc(O)cc1)C(=O)N[C@@H](CCCNC(=N)N)C(=O)N1CCC[C@H]1C(=O)N[C@@H](CCCCN)C(N)=O)C(C)C)C(C)C
B6: Lys-linked dimer (C-ter) (peptide)
peptide 1: [βAla]WLAYPDSVPYRPKK
peptide 2: [βAla]WLAYPDSVPYRPK
modifications: also: bond at chain A 15 to a chain's C-terminus
B7: Click dimer (N-ter) (peptide)
peptide 1: KAWLAYPDSVPYRPK
peptide 2: XGAWLAYPDSVPYRPK
modifications: not fully specified; propargylglycine (Pra) at position 1, joined by a click linkage to KN3 of the other chain; C-terminal amide; azido-lysine (KN3) at position 1, joined by a click linkage to Pra of the other chain; C-terminal amide
B8: YSA-GSGSK-bio (peptide)
peptide: YSAYPDSVPMMSGSGSK(Biotin)
notes: Previously identified monomer, included for comparison; also called monomer (2*); 2*
B9: L223R/L254R/V255R (receptor)
chain: AQGKEVVLLDFAAAGGELGWLTHPYGKGWDLMQNIMNDMPIYMYSVCNVMSGDQDNWLRTNWVYRGEAERIFIELKFTVRDCNSFPGGASSCKETFNLYYAESDLDYGTNFQKRLFTKIDTIAPDEITVSSDFEARHVKLNVEERSVGPLTRKGFYLAFQDIGACVALLSVRVYYKKCPELLQGLAHFPETIAGSDAPSRATVAGTCVDHAVVPPGGEEPRMHCAVDGEWRRPIGQCLCQAGYEKVEDACQACSPGFFKFEASESPCLECPEHTLPSPEGATSCECEEGFFRAPQDPASMPCTRPPSAPHYLTAVGMGAKVELRWTPPQDSGGREDIVYSVTCEQCWPESGECGPCEASVRYSEPPHGLTRTSVTVSDLEPHMNYTFTVEARNGVSGLVTSRSFRTASVSINQTEPPKVRLEGRSTTSLSVSWSIPPPQQSRVWKYEVTYRKKGDSNSYNVRRTEGFSVTLDDLAPDTTYLVQVQALTQEGQGAGSKVHEFQTLSPEGSGNLAVIGGVAVGVVLLLVLAGVGFFIHRRRKNQRARQSPEDVYFSKSEQLKPLKTYVDPHTYEDPNQAVLKFTTEIHPSCVTRQKVIGAGEFGEVYKGMLKTSSGKKEVPVAIKTLKAGYTEKQRVDFLGEAGIMGQFSHHNIIRLEGVISKYKPMMIITEYMENGALDKFLREKDGEFSVLQLVGMLRGIAAGMKYLANMNYVHRDLAARNILVNSNLVCKVSDFGLSRVLEDDPEATYTTSGGKIPIRWTAPEAISYRKFTSASDVWSFGIVMWEVMTYGERPYWELSNHEVMKAINDGFRLPTPMDCPSAIYQLMMQCWQQERARRPKFADIVSILDKLIRAPDSLKTLADFDPRVSIRLPSTSGSEGVPFRTVSEWLESIKMQQYTEHFMAAGYTAIEKVVQMTNDDIKRIGVRLPGHQKRIAYSLLGLKDQVNTVGIPI
modifications: Carries mTURQ (donor) or EYFP (acceptor) at the C-terminus. The tag is not in the letters.
notes: mutant of m18 used in the FRET experiments; also called EphA2 L223R/L254R/V255R; clustering interface mutant; not shown: C-terminal fluorescent protein (mTURQ or EYFP) and any linker to it

target: T1, EphA2 extracellular domain fused to the Fc portion of an antibody (EphA2-Fc); assay: ELISA, inhibition of ephrinA5-AP binding to immobilized EphA2-Fc
T1 construct: extracellular domain; Immobilized on the ELISA wells; also called immobilized EphA2
T1 sequence (P29317 whole entry, the tested form may be a part): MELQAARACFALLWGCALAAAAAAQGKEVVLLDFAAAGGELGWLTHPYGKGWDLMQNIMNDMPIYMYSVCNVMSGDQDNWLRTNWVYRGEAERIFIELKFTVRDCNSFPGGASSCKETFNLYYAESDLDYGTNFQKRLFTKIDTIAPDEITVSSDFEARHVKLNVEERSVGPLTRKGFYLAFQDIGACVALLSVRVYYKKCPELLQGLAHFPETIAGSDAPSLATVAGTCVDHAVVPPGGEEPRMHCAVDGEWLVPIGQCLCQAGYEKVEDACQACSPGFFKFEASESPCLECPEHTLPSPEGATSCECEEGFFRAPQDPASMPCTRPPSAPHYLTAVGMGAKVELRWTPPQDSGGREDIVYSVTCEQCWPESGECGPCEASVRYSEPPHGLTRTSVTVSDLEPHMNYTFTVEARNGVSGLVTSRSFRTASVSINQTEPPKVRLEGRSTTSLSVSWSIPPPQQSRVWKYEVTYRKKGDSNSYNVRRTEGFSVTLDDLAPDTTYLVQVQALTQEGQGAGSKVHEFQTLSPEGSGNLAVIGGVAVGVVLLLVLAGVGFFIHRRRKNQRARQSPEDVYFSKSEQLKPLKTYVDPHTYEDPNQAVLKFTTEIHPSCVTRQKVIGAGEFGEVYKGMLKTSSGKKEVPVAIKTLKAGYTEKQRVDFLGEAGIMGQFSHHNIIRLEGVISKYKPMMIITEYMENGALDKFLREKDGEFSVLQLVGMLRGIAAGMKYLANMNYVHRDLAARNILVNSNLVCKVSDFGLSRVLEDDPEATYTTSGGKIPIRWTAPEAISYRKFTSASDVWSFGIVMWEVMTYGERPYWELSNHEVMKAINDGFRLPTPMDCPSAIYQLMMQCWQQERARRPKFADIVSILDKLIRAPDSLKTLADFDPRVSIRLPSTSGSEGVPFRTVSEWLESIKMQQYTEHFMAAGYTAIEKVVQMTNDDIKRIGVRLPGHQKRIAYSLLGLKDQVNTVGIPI

Binder	IC50 [nM]
B1	7.9
B2	0.5
B3	71

target: T1, EphA2 extracellular domain fused to the …; assay: ELISA, inhibition of ephrinA5-AP binding to immobilized EphA2-Fc; representative experiment, triplicates
Method: FIG. 1A-1C illustrates an example of Potency and selectivity of EphA2-targeting dimeric peptides. […] The graphs show averages ±SD from triplicate measurements from a representative experiment. […] The 10 nM peptide concentration is outlined in red. […] Values are normalized to ephrin binding without peptide. The graphs show averages and SDs from triplicate measurements (with each measurement shown as a dot).

Binder	IC50 [nM]
B4	22

target: T2, EphA2 endogenously expressed on PC3 prostate cancer cells (UniProt P29317 24-976, limits assumed); assay: cell-based or functional assay

Binder	agonistic potency (pY588), fold lower than the other dimers with similar configuration [fold]
B1	10 to 60
B3	10 to 60

target: T2, EphA2 endogenously expressed on PC3 …; assay: cell-based or functional assay; remark: another data set of the same source

Binder	EC50 pAKT inhib	Etop pAKT inhib	Etop pY588	βlig (bias factor)	EC50 pY588 [nM]
B1	0.53 nM	0.9	0.94 normalized to ephrinA1-Fc	0.47	–
B5	90 pM	0.87	0.76 normalized to ephrinA1-Fc	0.62	0.73
CGAWLAYPDSVPYRPK-NH2 (also: homodimer: N-terminal Cys of two chains joined by disulfide) [CGA-WLA-YRPKam dimer (N-ter)]	80 pM	0.97	0.98 normalized to ephrinA1-Fc	0.51	0.36
B2	0.82 nM	0.86	0.5 normalized to ephrinA1-Fc	0.73	5.6
B6	0.42 nM	1	0.46 normalized to ephrinA1-Fc	0.79	2.6
B4	–	1.06	0.48 normalized to ephrinA1-Fc	0.64	–
B7	80 pM	0.87	0.98 normalized to ephrinA1-Fc	0.5	0.64
B3	39 nM	0.9	0.49 normalized to ephrinA1-Fc	0.506	–

target: T2, EphA2 endogenously expressed on PC3 …; assay: cell-based or functional assay; remark: another data set of the same source

Binder	Blig (bias factor)	EC50 PY588 [nM]	Emax PY588	IC50 PAKT [nM]
B5	0.62	0.49	0.61 normalized to ephrinA1-Fc	0.12
CGAWLAYPDSVPYRPK-NH2 (also: homodimer: N-terminal Cys of two chains joined by disulfide) [CGA-WLA-YRPKam dimer (N-ter)]	0.36	0.12	0.8 normalized to ephrinA1-Fc	0.043
B2	1.28	2.6	0.39 normalized to ephrinA1-Fc	0.22
B6	0.79	2.4	0.37 normalized to ephrinA1-Fc	0.63
B7	0.93	0.22	0.71 normalized to ephrinA1-Fc	0.024

target: T3, EphA2 ligand binding domain (EphA2 LBD), residues 28-200 (UniProt P29317 28-200); assay: ITC, soluble EphA2 LBD and peptide
T3 construct: range 28-200; Expressed in E. coli; also called soluble EphA2 LBD; soluble monomeric EphA2 LBD
T3 sequence (P29317 other isoform, or with tags, fused parts or gaps limits assumed, form in doubt): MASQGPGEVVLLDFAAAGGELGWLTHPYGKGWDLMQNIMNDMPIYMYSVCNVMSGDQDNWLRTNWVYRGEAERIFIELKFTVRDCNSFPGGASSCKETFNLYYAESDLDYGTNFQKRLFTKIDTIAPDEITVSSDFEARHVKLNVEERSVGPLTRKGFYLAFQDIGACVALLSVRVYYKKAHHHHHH
Method: (§1) For ITC, all peptides are dissolved in DMSO and both the EphA2 LBD and the peptides are diluted to obtain a final buffer containing 9.5 mM HEPES, pH 7.9, 95 mM NaCl, and 5% DMSO. The experiments are carried out at 296 K (23° C.) using an ITC200 calorimeter (Microcal). Two-microliter aliquots of a peptide solution are injected into the cell containing 205 μL EphA2 LBD. 200-400 μM peptides are titrated into 20-40 μM EphA2 LBD. Experimental data are analyzed using the Origin software package (Microcal). The integrated values for the reaction heats are normalized to the amount of injected peptide after blank subtraction.

Binder	-TΔS [kcal/mol]	Kd [nM]	N (binding stoichiometry)	ΔG [kcal/mol]	ΔH [kcal/mol]
B1	23.6	104	2	-9.47	-33.1
B2	19.5	380	2	-8.71	-28.2
B4	25.5	–	0.8	–	-35.1
B3	16.3	2900	1.7	-7.55	-23.9

target: T1, EphA2 extracellular domain fused to the …; assay: ELISA, inhibition of ephrinA5-AP binding to immobilized EphA2-Fc; remark: another data set of the same source

Binder	IC50 [nM]
B1	7.9
B2	0.5
B8	850
B3	71

target: T3, EphA2 ligand binding domain (EphA2 …); assay: ITC, EphA2 LBD (200-250 µM) titrated into 10-12.5 µM peptide; single titration shown

Binder	Kd [nM]
B3	3760

target: T3, EphA2 ligand binding domain (EphA2 …); assay: as above; remark: another data set of the same source

Binder	Kd [nM]
B1	103

target: T3, EphA2 ligand binding domain (EphA2 …); assay: as above; remark: another data set of the same source

Binder	Kd [nM]
B2	329

target: T3, EphA2 ligand binding domain (EphA2 …); assay: ITC, soluble EphA2 LBD and peptide; remark: another data set of the same source
Method: as §1

Binder	Kd [nM]	N (binding stoichiometry)
B1	104	2
B2	380	2
B4	–	0.8
B3	2900	1.7

target: T3, EphA2 ligand binding domain (EphA2 …); assay: ITC, soluble EphA2 LBD and peptide; remark: another data set of the same source

Binder	Kd [nM]	N (binding stoichiometry)
B1	104	2
B2	380	2
B3	2900	1.7

Target: the molecule itself
Assay: quantitative FRET between mTURQ- and EYFP-tagged EphA2 L223R/L254R/V255R in HEK293 cells, no ligand; self-association, monomer-dimer fit

Binder	binding result
B9	binds

target: T1, EphA2 extracellular domain fused to the …; assay: ELISA, inhibition of ephrinA5-AP binding to immobilized EphA2-Fc; representative experiment, triplicates; remark: another data set of the same source

Binder	IC50 [nM]
B1	6.7
B2	0.47
B3	67
